Data reported in IntAct's records for PubMed 19258017.

B1: Cellulose synthase A catalytic subunit 7 [UDP-forming] (Arabidopsis thaliana (Mouse-ear cress)), Q9SWW6 (parent)
chain: MEASAGLVAGSHNRNELVVIHNHEEPKPLKNLDGQFCEICGDQIGLTVEGDLFVACNECGFPACRPCYEYERREGTQNCPQCKTRYKRLRGSPRVEGDEDEEDIDDIEYEFNIEHEQDKHKHSAEAMLYGKMSYGRGPEDDENGRFPPVIAGGHSGEFPVGGGYGNGEHGLHKRVHPYPSSEAGSEGGWRERMDDWKLQHGNLGPEPDDDPEMGLIDEARQPLSRKVPIASSKINPYRMVIVARLVILAVFLRYRLLNPVHDALGLWLTSVICEIWFAVSWILDQFPKWFPIERETYLDRLSLRYEREGEPNMLAPVDVFVSTVDPLKEPPLVTSNTVLSILAMDYPVEKISCYVSDDGASMLTFESLSETAEFARKWVPFCKKFSIEPRAPEMYFTLKVDYLQDKVHPTFVKERRAMKREYEEFKVRINAQVAKASKVPLEGWIMQDGTPWPGNNTKDHPGMIQVFLGHSGGFDVEGHELPRLVYVSREKRPGFQHHKKAGAMNALVRVAGVLTNAPFMLNLDCDHYVNNSKAVREAMCFLMDPQIGKKVCYVQFPQRFDGIDTNDRYANRNTVFFDINMKGLDGIQGPVYVGTGCVFKRQALYGYEPPKGPKRPKMISCGCCPCFGRRRKNKKFSKNDMNGDVAALGGAEGDKEHLMSEMNFEKTFGQSSIFVTSTLMEEGGVPPSSSPAVLLKEAIHVISCGYEDKTEWGTELGWIYGSITEDILTGFKMHCRGWRSIYCMPKRPAFKGSAPINLSDRLNQVLRWALGSVEIFFSRHSPLWYGYKGGKLKWLERFAYANTTIYPFTSIPLLAYCILPAICLLTDKFIMPPISTFASLFFISLFMSIIVTGILELRWSGVSIEEWWRNEQFWVIGGISAHLFAVVQGLLKILAGIDTNFTVTSKATDDDDFGELYAFKWTTLLIPPTTVLIINIVGVVAGISDAINNGYQSWGPLFGKLFFSFWVIVHLYPFLKGLMGRQNRTPTIVVIWSVLLASIFSLLWVRIDPFVLKTKGPDTSKCGINC
partner: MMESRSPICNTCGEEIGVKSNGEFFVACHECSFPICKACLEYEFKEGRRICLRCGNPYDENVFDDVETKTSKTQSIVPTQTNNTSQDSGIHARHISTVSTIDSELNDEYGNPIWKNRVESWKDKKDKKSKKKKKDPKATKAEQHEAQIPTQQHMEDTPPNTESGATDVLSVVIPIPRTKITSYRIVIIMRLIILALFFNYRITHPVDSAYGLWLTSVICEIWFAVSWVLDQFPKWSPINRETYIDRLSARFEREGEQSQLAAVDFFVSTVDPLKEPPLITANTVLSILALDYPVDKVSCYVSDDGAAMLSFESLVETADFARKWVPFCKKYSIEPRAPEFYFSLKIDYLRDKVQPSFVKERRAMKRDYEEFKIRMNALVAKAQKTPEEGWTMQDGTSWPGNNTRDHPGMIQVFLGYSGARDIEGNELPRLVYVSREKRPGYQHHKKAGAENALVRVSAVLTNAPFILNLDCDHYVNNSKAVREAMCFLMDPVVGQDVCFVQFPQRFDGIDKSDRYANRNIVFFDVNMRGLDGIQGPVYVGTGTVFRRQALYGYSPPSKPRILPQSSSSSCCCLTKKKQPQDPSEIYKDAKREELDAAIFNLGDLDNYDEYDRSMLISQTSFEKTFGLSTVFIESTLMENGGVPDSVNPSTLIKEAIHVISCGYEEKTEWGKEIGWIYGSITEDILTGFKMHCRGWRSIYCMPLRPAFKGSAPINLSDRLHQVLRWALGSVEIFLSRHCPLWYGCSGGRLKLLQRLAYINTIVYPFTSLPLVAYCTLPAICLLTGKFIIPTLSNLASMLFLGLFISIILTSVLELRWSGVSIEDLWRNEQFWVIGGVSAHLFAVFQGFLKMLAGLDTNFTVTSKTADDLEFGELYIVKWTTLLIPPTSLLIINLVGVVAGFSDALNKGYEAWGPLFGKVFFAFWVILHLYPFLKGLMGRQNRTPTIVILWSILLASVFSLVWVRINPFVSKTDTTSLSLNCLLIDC
B2: Cellulose synthase A catalytic subunit 7 [UDP-forming] (Arabidopsis thaliana (Mouse-ear cress)), Q9SWW6 (parent)
chain: B1 chain
partner: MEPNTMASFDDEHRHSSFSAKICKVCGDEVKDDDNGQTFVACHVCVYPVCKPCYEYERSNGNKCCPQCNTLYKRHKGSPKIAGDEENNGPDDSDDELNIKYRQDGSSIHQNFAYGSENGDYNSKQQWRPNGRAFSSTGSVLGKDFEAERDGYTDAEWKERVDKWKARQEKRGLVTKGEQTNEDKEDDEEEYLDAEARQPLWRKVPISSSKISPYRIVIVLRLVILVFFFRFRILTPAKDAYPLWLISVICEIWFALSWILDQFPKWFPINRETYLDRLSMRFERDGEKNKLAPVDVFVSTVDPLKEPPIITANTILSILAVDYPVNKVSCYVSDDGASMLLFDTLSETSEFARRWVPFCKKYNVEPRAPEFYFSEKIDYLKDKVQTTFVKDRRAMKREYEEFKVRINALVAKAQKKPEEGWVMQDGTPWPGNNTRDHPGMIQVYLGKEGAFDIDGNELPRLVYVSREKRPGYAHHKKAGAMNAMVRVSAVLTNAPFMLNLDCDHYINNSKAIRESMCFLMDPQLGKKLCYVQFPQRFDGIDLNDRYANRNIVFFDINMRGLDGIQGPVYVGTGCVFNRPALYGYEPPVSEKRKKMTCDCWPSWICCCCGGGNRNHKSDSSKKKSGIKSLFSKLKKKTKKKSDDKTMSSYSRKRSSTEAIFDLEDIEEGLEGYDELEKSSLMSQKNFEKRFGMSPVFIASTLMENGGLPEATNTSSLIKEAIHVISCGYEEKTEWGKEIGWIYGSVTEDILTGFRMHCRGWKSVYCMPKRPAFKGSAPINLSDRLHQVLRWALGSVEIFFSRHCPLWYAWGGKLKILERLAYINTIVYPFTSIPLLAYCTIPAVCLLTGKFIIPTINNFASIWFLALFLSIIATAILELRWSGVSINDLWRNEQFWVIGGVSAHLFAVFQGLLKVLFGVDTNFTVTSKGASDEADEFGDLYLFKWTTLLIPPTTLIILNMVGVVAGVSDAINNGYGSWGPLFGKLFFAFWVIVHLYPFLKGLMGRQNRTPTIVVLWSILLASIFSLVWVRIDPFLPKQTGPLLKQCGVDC

Variants of: B1
Settings: with cesa8_arath CESA8, Q8LPK5
C56A was tested, and the “effect of a mutation on the interaction” value was “decreasing interaction”.

Variants of: B1
Settings: with cesa8_arath CESA8, Q8LPK5
Remark: another data set of the same source
In the case of C37A, the “effect of a mutation on the interaction” value is reported as “decreasing interaction”.

Variants of: B1
Settings: with cesa8_arath CESA8, Q8LPK5
Remark: another data set of the same source
With C79A the “effect of a mutation on the interaction” value was “decreasing interaction”.

Variants of: B1
Settings: with cesa8_arath CESA8, Q8LPK5
Remark: another data set of the same source
C64A was tested, and the “effect of a mutation on the interaction” value was “decreasing interaction”.

Variants of: B2
Settings: with cesa4_arath CESA4, Q84JA6
In the case of C64A, the “effect of a mutation on the interaction” value is reported as “decreasing interaction”.

Variants of: B2
Settings: with cesa4_arath CESA4, Q84JA6
Remark: another data set of the same source
For C37A, the “effect of a mutation on the interaction” value was “decreasing interaction”.

Variants of: B2
Settings: with cesa4_arath CESA4, Q84JA6
Remark: another data set of the same source
In the case of C79A, the “effect of a mutation on the interaction” value is reported as “decreasing interaction”.
